The values that follow come from patent publication US20250250357A1 (NANJING ZAIMING PHARMACEUTICAL, published 2025).

For experiment [1], the target named is T1, human MSLN-R3 protein (human, UniProt Q13421 487-598).
T1 construct: also called hMSLN-R3
The experiment is described as follows: ELISA on coated antigen, antibody 100 nM.

The target in experiment [2] is T2, human MSLN-hFc protein (Acro, Cat. No. MSN-H5253) (human, UniProt Q13421 296-580).
T2 construct: the method names the coated protein as human MSLN-hFc (Acro); also called human MSLN full-length protein
Description: ELISA on coated antigen, antibody 0.0001 nM.

The target in experiment [3] is T1, human MSLN-R3 protein. Description: ELISA on coated antigen, antibody 0.0001 nM.
Experiment [4] concerns the target T2, human MSLN-hFc protein (Acro, Cat. No. …). Description: ELISA on coated antigen, antibody 10 nM.
Experiment [5] shares this target. Description: ELISA on coated antigen, antibody 0.01 nM.
Experiment [6] concerns the target T1, human MSLN-R3 protein. The experiment is described as follows: ELISA on coated antigen, antibody 0.01 nM.
For experiment [7], the target named is T1, human MSLN-R3 protein. The experiment is described as follows: ELISA on coated antigen, antibody 10 nM.
Experiment [8] concerns the target T2, human MSLN-hFc protein (Acro, Cat. No. …). Description: ELISA on coated antigen, antibody 0.1 nM.
Experiment [9] deals with T1, human MSLN-R3 protein. The experiment is described as follows: ELISA on coated antigen, antibody 0.001 nM.
The target in experiment [10] is T1, human MSLN-R3 protein. Description: ELISA on coated antigen, antibody 1 nM.
For experiment [11], the target named is T2, human MSLN-hFc protein (Acro, Cat. No. …). The experiment is described as follows: ELISA on coated antigen, antibody 0.001 nM.
The target in experiment [12] is T1, human MSLN-R3 protein. Description: ELISA on coated antigen, antibody 0.1 nM.
In experiment [13] the target is T2, human MSLN-hFc protein (Acro, Cat. No. …). Description: ELISA on coated antigen, antibody 100 nM.
Experiment [14] has the same target. Description: ELISA on coated antigen, antibody 1 nM.
Experiment [15] has as its target T1, human MSLN-R3 protein. Description: ELISA on coated antigen, antibody 10 nM. The source holds these as a separate data set.
The target of experiment [16] is T1, human MSLN-R3 protein. The experiment is described as follows: ELISA on coated antigen, antibody 100 nM. The source holds these as a separate data set.
In experiment [17] the target is T1, human MSLN-R3 protein. The experiment is described as follows: ELISA on coated antigen, antibody 0.001 nM. The source holds these as a separate data set.
Experiment [18] addresses T1, human MSLN-R3 protein. The experiment is described as follows: ELISA on coated antigen, antibody 0.01 nM. The source holds these as a separate data set.
The target of experiment [19] is T1, human MSLN-R3 protein. Description: ELISA on coated antigen, antibody 0.1 nM. This is another data set of the same source.
Experiment [20] deals with T1, human MSLN-R3 protein. Description: ELISA on coated antigen, antibody 1 nM. This is another data set of the same source.
Experiment [21] deals with T1, human MSLN-R3 protein. Description: ELISA on coated antigen, antibody 0.0001 nM. This is another data set of the same source.

T2 sequence (Q13421 other isoform, or with tags, fused parts or gaps limits assumed): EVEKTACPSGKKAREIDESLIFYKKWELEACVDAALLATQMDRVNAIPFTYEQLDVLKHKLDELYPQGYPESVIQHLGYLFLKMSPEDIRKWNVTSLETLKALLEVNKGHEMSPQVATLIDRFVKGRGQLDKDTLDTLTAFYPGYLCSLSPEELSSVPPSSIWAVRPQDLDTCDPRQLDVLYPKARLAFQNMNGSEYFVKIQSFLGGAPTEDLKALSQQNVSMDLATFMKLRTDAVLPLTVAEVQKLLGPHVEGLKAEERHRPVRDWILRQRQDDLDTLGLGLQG
T1 sequence (Q13421 495-606, form in doubt): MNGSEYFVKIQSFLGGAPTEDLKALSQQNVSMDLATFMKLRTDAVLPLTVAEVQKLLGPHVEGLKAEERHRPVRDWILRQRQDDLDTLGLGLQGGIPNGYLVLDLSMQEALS

B1: F7.33.24-H2 (scFv, not shown: small tags and cut ends)
scFv: EVQLVQSGAEVKKPGASVKVSCKASGYTFTSYWMHWVRQAPGQRLEWMGNVNPSNGGSNYNEKFKNRVTITVDKSASTAYMELSSLRSEDTAVYYCAPHYIGSRPGFAYWGQGTLVTVSSGGGGSGGGGSGGGGSDIVMTQTPLSLSVTPGQPASISCKASQNVGTNIAWYLQKPGQSPQALIYSASYRYSGVPDRFSGSGSGTDFTLKISRVEAEDVGVYYCQQYNSYPLTFGGGTKVEIK
notes: also called S009-F7.33.24 humanized antibody VH1 + VL2
For the molecule B1, the OD450 came out at 1.9 OD450 in the experiment with human MSLN-R3 protein [1]; 0.05 OD450 in [2]; 0.04 OD450 with human MSLN-R3 protein [3]; 2.07 OD450 in experiment [4]; 0.05 OD450 in experiment [5]; 0.04 OD450 in the experiment with human MSLN-R3 protein [6]. The OD450 turned out to be 1.62 OD450 in the experiment with human MSLN-R3 protein [7]; 0.08 OD450 in experiment [8]; 0.04 OD450 in the experiment with human MSLN-R3 protein [9]; 0.42 OD450 in the experiment with human MSLN-R3 protein [10]; 0.05 OD450 in experiment [11]; 0.06 OD450 with human MSLN-R3 protein [12]. Moreover, the figures for the OD450 in experiment [13] and in experiment [14] were 2.91 OD450 and 0.4 OD450, respectively.

B2: F7.33.24-H3 (scFv, not shown: small tags and cut ends)
scFv: EVQLVQSGAEVKKPGASVKVSCKASGYTFTSYWMHWVRQAPGQRLEWMGNVNPSNGGSNYNEKFKNRVTITVDKSASTAYMELSSLRSEDTAVYYCAPHYIGSRPGFAYWGQGTLVTVSSGGGGSGGGGSGGGGSDIVMTQTPLSLSVTPGQPASISCKASQNVGTNIAWYQQKPGQSPQALIYSASYRYSGVPDRFSGSGSGTDFTLKISRVEAEDVGVYYCQQYNSYPLTFGGGTKVEIK
notes: also called S009-F7.33.24 humanized antibody VH1 + VL3
Turning to B2, the OD450 was found to be 1.91 OD450 with human MSLN-R3 protein [1]; 0.05 OD450 in experiment [2]; 0.04 OD450 with human MSLN-R3 protein [3]; 2.58 OD450 in [4]; 0.06 OD450 in experiment [5]; 0.04 OD450 with human MSLN-R3 protein [6]. Further, the OD450 in the experiment with human MSLN-R3 protein [7] amounted to 1.86 OD450; in [8] it was 0.13 OD450; with human MSLN-R3 protein [9] it was 0.04 OD450; in the experiment with human MSLN-R3 protein [10], 0.89 OD450; in experiment [11] it was 0.05 OD450; with human MSLN-R3 protein [12] it was 0.13 OD450. Also, the OD450 in experiment [13] came to 2.93 OD450; in experiment [14] it was 0.91 OD450.

B3: F7.33.24-H1 (scFv, not shown: small tags and cut ends)
scFv: EVQLVQSGAEVKKPGASVKVSCKASGYTFTSYWMHWVRQAPGQRLEWMGNVNPSNGGSNYNEKFKNRVTITVDKSASTAYMELSSLRSEDTAVYYCAPHYIGSRPGFAYWGQGTLVTVSSGGGGSGGGGSGGGGSDIVMTQSPDSLAVSLGERATINCKASQNVGTNIAWYQQKPGQSPKALIYSASYRYSGVPDRFSGSGSGTDFTLTISSLQAEDVAVYYCQQYNSYPLTFGGGTKVEIK
notes: also called S009-F7.33.24 humanized antibody VH1 + VL1
B3: the OD450 with human MSLN-R3 protein [1] worked out at 1.93 OD450; in experiment [2], 0.05 OD450; with human MSLN-R3 protein [3], 0.04 OD450; in experiment [4], 2.53 OD450; in experiment [5] it was 0.05 OD450; with human MSLN-R3 protein [6] it was 0.04 OD450. Further, the OD450 with human MSLN-R3 protein [7] was 1.61 OD450; in experiment [8], 0.1 OD450; with human MSLN-R3 protein [9], 0.04 OD450; in the experiment with human MSLN-R3 protein [10], 0.52 OD450; in experiment [11] it was 0.04 OD450; with human MSLN-R3 protein [12] it was 0.08 OD450. The results for the OD450 in experiment [13] and in experiment [14] were 2.9 OD450 and 0.59 OD450, respectively.

B4: F7.33.24-H7 (scFv, not shown: small tags and cut ends)
scFv: EVQLVQSGAEVKKPGASVKVSCKASGYTFTSYWMHWVRQAPGQGLEWMGNVNPSNGGSNYNEKFKNRVTITVDKSASTAYMELSSLRSEDTAVYYCAPHYIGSRPGFAYWGQGTLVTVSSGGGGSGGGGSGGGGSDIVMTQSPDSLAVSLGERATINCKASQNVGTNIAWYQQKPGQSPKALIYSASYRYSGVPDRFSGSGSGTDFTLTISSLQAEDVAVYYCQQYNSYPLTFGGGTKVEIK
notes: also called S009-F7.33.24 humanized antibody VH2 + VL1
Take B4: the OD450 in the experiment with human MSLN-R3 protein [1] was found to be 1.95 OD450; in experiment [2], 0.05 OD450; with human MSLN-R3 protein [3], 0.04 OD450; in experiment [4] it was 2.32 OD450; in [5] it was 0.05 OD450; with human MSLN-R3 protein [6], 0.04 OD450. Further, the OD450 with human MSLN-R3 protein [7] amounted to 1.52 OD450; in experiment [8], 0.1 OD450; in the experiment with human MSLN-R3 protein [9] it was 0.04 OD450; with human MSLN-R3 protein [10] it was 0.33 OD450; in experiment [11] it was 0.06 OD450; in the experiment with human MSLN-R3 protein [12], 0.06 OD450. Further, the OD450 in experiment [13] came out at 2.79 OD450; in experiment [14], 0.48 OD450.

B5: F7.33.24-H4 (scFv, not shown: small tags and cut ends)
scFv: EVQLVQSGAEVKKPGASVKVSCKASGYTFTSYWMHWVRQAPGQRLEWMGNVNPSSGGSNYNEKFKNRVTITVDKSASTAYMELSSLRSEDTAVYYCAPHYIGSRPGFAYWGQGTLVTVSSGGGGSGGGGSGGGGSDIVMTQSPDSLAVSLGERATINCKASQNVGTNIAWYQQKPGQSPKALIYSASYRYSGVPDRFSGSGSGTDFTLTISSLQAEDVAVYYCQQYNSYPLTFGGGTKVEIK
notes: also called S009-F7.33.24 humanized antibody VH1a + VL1
As for B5, the OD450 with human MSLN-R3 protein [1] was 1.95 OD450; in experiment [2], 0.05 OD450; with human MSLN-R3 protein [3], 0.04 OD450; in experiment [4], 2.21 OD450; in experiment [5], 0.07 OD450; with human MSLN-R3 protein [6], 0.04 OD450. For the same molecule, the OD450 came out at 1.64 OD450 in the experiment with human MSLN-R3 protein [7]; 0.08 OD450 in [8]; 0.04 OD450 with human MSLN-R3 protein [9]; 0.45 OD450 with human MSLN-R3 protein [10]; 0.05 OD450 in [11]; 0.07 OD450 with human MSLN-R3 protein [12]. In addition, the OD450 in experiment [13] stood at 2.95 OD450; in [14] it was 0.45 OD450.

B6: F7.33.24-H10 (scFv, not shown: small tags and cut ends)
scFv: EVQLVQSGAEVKKPGASVKVSCKASGYTFTSYWMHWVRQAPGQGLEWMGNVNPSNAGSNYNEKFKNRVTITVDKSASTAYMELSSLRSEDTAVYYCAPHYIGSRPGFAYWGQGTLVTVSSGGGGSGGGGSGGGGSDIVMTQSPDSLAVSLGERATINCKASQNVGTNIAWYQQKPGQSPKALIYSASYRYSGVPDRFSGSGSGTDFTLTISSLQAEDVAVYYCQQYNSYPLTFGGGTKVEIK
notes: also called S009-F7.33.24 humanized antibody VH2a + VL1
For the molecule B6, the OD450 was found to be 2.26 OD450 with human MSLN-R3 protein [1]; 0.04 OD450 in experiment [2]; 0.05 OD450 with human MSLN-R3 protein [3]; 2.28 OD450 in experiment [4]; 0.05 OD450 in [5]; 0.04 OD450 in the experiment with human MSLN-R3 protein [6]. Moreover, the OD450 with human MSLN-R3 protein [7] was 1.85 OD450; in experiment [8], 0.09 OD450; in the experiment with human MSLN-R3 protein [9] it was 0.05 OD450; with human MSLN-R3 protein [10], 0.55 OD450; in [11] it was 0.04 OD450; with human MSLN-R3 protein [12] it was 0.08 OD450. In addition, the OD450 in experiment [13] stood at 3.03 OD450; in experiment [14], 0.51 OD450.

B7: Tab110 (scFv, not shown: small tags and cut ends)
scFv: QQQLEESGGGLVKPEGSLTLTCKASGFDLGFYFYACWVRQAPGKGLEWIACIYTAGSGSTYYASWAKGRFTISKASSTTVTLQMTSLAAADTATYFCARSTANTRSTYYLNLWGPGTLVTVSSGGGGSGGGGSGGGGSDVVMTQTPASVSEPVGGTVTIKCQASQRISSYLSWYQQKPGQRPKLLIFGASTLASGVPSRFKGSGSGTEYTLTISDLECADAATYYCQSYAYFDSNNWHAFGGGTEVVV
notes: also called YP218 VH-(G4S)3-VL-his antibody; positive control
B7: the OD450 in the experiment with human MSLN-R3 protein [1] was determined as 0.98 OD450; in the experiment with human MSLN-R3 protein [15], 0.78 OD450; with human MSLN-R3 protein [3], 0.05 OD450; with human MSLN-R3 protein [16] it was 0.98 OD450; in the experiment with human MSLN-R3 protein [17], 0.04 OD450; with human MSLN-R3 protein [6], 0.04 OD450. Moreover, the OD450 came out at 0.78 OD450 in the experiment with human MSLN-R3 protein [7]; 0.04 OD450 with human MSLN-R3 protein [9]; 0.04 OD450 with human MSLN-R3 protein [18]; 0.06 OD450 with human MSLN-R3 protein [10]; 0.04 OD450 in the experiment with human MSLN-R3 protein [19]; 0.04 OD450 with human MSLN-R3 protein [12]. Also, the values for the OD450 with human MSLN-R3 protein [20] and with human MSLN-R3 protein [21] were 0.06 OD450 and 0.05 OD450, respectively.
